Experimental data: PMC9482650, “Quantitative fragmentomics allow affinity mapping of interactomes” (Nature Communications, 2022)
Positions count from the first letter of the chain named.

Legend:
Assay in all cases: holdup assay
Design in all cases: key: below the threshold = too weak to quantify, mostly under pKd 3.1 to 4
AHNAK1, Q09666 = target: AHNAK1, Q09666
ARHGAP21, Q5T5U3 = target: T1, ARHGAP21, Q5T5U3
T1 sequence (Q5T5U3 45-169, limits assumed, looked up): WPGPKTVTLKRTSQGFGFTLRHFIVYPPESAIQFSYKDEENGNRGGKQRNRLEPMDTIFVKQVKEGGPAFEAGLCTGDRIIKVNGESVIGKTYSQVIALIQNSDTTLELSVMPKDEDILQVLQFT

DLG3_1, Q92796 = target: T2, DLG3_1, Q92796
T2 sequence (Q92796 125-227, limits assumed, looked up): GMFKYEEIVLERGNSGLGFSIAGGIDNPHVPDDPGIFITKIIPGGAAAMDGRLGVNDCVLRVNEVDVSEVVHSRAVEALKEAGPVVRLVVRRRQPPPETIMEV

DLG5_1, Q8TDM6 = target: DLG5_1, Q8TDM6
DLG5_1, Q8TDM6, sequence (Q8TDM6 617-713): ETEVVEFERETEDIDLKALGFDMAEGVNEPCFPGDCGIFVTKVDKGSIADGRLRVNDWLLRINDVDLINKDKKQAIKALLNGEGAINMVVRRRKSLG

FRMPD2_1, Q68DX3 = target: FRMPD2_1, Q68DX3
FRMPD2_1, Q68DX3, sequence (Q68DX3 770-861): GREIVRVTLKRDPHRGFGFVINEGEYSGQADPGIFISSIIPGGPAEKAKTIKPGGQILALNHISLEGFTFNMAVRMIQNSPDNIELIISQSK

FRMPD2_2, Q68DX3 = target: FRMPD2_2, Q68DX3
FRMPD2_2, Q68DX3, sequence (Q68DX3 944-1038): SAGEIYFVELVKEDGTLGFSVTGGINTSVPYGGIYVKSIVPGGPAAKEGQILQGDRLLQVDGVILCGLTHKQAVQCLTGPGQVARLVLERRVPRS

GRASP, Q7Z6J2 = target: GRASP, Q7Z6J2
GRASP, Q7Z6J2, sequence (Q7Z6J2 96-193): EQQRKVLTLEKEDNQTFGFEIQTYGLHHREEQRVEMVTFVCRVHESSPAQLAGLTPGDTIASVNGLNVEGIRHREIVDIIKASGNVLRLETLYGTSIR

GRID2IP_2, A4D2P6 = target: GRID2IP_2, A4D2P6
GRID2IP_2, A4D2P6, sequence (A4D2P6 272-370): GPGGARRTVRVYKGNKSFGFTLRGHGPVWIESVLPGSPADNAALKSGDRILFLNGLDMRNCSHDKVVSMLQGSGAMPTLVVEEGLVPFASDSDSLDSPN

GRIP1_4, Q9Y3R0 = target: T3, GRIP1_4, Q9Y3R0
T3 sequence (Q9Y3R0 467-571, limits assumed, looked up): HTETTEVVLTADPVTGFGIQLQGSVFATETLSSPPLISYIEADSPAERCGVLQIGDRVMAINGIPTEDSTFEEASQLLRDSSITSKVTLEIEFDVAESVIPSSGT

Inadl_6, Q8NI35 = target: Inadl_6, Q8NI35
Inadl_6, Q8NI35, sequence (Q8NI35 1058-1167): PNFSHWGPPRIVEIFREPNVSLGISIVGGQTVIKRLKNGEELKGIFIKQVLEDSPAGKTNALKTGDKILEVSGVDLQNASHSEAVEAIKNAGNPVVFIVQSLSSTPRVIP

LAP2, Q96RT1 = target: LAP2, Q96RT1
LAP2, Q96RT1, sequence (Q96RT1 other isoform, or with tags, fused parts or gaps): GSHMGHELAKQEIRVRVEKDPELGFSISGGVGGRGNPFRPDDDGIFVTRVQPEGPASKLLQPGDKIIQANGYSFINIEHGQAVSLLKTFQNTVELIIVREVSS

LIN7B, Q9HAP6 = target: T4, LIN7B, Q9HAP6
T4 sequence (Q9HAP6 88-185, limits assumed, looked up): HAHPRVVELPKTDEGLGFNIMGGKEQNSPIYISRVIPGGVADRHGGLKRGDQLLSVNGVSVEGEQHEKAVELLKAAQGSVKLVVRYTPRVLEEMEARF

LIN7C, Q9NUP9 = target: T5, LIN7C, Q9NUP9
T5 sequence (Q9NUP9 88-185, limits assumed, looked up): T4 sequence (Q9HAP6 88-185, limits assumed, looked up) with A2S, D13E, V35I, V40I, Q65H, S79K, R89K, A96S

LNX1_2, Q8TBB1 = target: LNX1_2, Q8TBB1
LNX1_2, Q8TBB1, sequence (Q8TBB1 371-470): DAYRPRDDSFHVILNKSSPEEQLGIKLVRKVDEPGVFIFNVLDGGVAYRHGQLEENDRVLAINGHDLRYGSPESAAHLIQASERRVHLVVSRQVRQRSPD

MAGI1_2, Q96QZ7 = target: MAGI1_2, Q96QZ7
MAGI1_2, Q96QZ7, sequence (Q96QZ7 456-580): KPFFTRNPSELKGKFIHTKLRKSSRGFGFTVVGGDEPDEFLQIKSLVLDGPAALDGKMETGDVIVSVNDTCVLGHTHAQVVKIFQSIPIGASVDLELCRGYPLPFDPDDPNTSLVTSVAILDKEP

MPDZ_10, O75970 = target: T6, MPDZ_10, O75970
T6 sequence (O75970 1624-1722, limits assumed, looked up): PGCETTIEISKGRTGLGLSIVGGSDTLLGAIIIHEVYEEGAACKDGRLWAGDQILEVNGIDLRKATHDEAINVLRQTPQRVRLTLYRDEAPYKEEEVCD

MPDZ_5, O75970 = target: T7, MPDZ_5, O75970
T7 sequence (O75970 695-796, limits assumed, looked up): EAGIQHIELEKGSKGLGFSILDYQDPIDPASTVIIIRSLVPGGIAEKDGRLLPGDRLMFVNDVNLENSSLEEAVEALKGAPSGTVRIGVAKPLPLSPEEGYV

MPP6, Q9NZW5 = target: T8, MPP6, Q9NZW5
T8 sequence (Q9NZW5 125-219, limits assumed, looked up): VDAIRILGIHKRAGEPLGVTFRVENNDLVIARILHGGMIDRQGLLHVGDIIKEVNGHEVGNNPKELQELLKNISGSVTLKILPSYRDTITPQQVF

PDZD2_2, O15018 = target: T9, PDZD2_2, O15018
T9 sequence (O15018 329-429, limits assumed, looked up): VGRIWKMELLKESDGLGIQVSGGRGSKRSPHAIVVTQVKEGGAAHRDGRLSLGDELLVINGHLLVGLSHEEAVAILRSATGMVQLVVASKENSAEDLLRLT

PICK1, Q9NRD5 = target: PICK1, Q9NRD5
PICK1, Q9NRD5, sequence (Q9NRD5 17-115): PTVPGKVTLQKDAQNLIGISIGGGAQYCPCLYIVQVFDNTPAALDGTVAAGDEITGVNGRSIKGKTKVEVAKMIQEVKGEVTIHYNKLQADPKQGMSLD

SCRIB_3, Q14160 = target: SCRIB_3, Q14160
SCRIB_3, Q14160, sequence (Q14160 999-1103): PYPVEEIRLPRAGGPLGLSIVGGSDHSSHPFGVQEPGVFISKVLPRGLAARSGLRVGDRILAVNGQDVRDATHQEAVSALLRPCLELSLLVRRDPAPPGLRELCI

SNTB1, Q13884 = target: T10, SNTB1, Q13884
T10 sequence (Q13884 107-205, limits assumed, looked up): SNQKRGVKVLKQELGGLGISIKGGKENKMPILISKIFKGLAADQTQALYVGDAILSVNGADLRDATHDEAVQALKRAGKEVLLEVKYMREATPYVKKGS

SNX27, Q96L92 = target: SNX27, Q96L92
TIAM2, Q8IVF5 = target: T11, TIAM2, Q8IVF5
T11 sequence (Q8IVF5 885-986, limits assumed, looked up): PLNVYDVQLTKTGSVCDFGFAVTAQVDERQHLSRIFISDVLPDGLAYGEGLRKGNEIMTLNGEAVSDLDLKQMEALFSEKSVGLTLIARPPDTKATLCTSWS

TX1BP3, O14907 = target: T12, TX1BP3, O14907
T12 sequence (O14907 10-122, limits assumed, looked up): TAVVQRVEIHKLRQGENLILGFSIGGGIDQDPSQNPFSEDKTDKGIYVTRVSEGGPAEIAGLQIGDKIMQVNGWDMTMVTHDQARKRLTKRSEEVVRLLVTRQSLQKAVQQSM

[1] = plain residues with an end cap or a label only (N-terminal biotin on a linker: ado-ado)
[2] = plain residues with an end cap or a label only (N-terminal biotin on a linker: (peg)3)

Measured: pKd

AHNAK1, Q09666, sequence (Q09666 4-100): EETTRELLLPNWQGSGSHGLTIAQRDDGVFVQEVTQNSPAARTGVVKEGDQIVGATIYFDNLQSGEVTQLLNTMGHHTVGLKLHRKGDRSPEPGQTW

PKRSFIESNV [TANC1, Q9C0D5]
3.53: GRID2IP_2, A4D2P6; [1]
4.81: PDZD2_2, O15018; [1]
5.72: TX1BP3, O14907; [1]
3.85: ARHGAP21, Q5T5U3; [1]
4.37: MAGI1_2, Q96QZ7; [1]
3.76: MPP6, Q9NZW5; [1]
5.27: LAP2, Q96RT1; [1]
4.15: DLG3_1, Q92796; [1]
3.8: FRMPD2_2, Q68DX3; [1]
below the threshold: AHNAK1, Q09666; [1] | DLG5_1, Q8TDM6; [1] | FRMPD2_1, Q68DX3; [1] | GRASP, Q7Z6J2; [1] | GRIP1_4, Q9Y3R0; [1] | Inadl_6, Q8NI35; [1] | LIN7B, Q9HAP6; [1] | LIN7C, Q9NUP9; [1] | LNX1_2, Q8TBB1; [1] | MPDZ_10, O75970; [1] | MPDZ_5, O75970; [1] | TIAM2, Q8IVF5; [1]
5.05: SCRIB_3, Q14160; [1]
4.14: PICK1, Q9NRD5; [1]
5: SNTB1, Q13884; [1]
5.51: SNX27, Q96L92; [1]

DDEDRLVIEI [ZNF831, Q5JPB2]
below the threshold: AHNAK1, Q09666; [1] | ARHGAP21, Q5T5U3; [1] | DLG3_1, Q92796; [1] | DLG5_1, Q8TDM6; [1] | FRMPD2_1, Q68DX3; [1] | FRMPD2_2, Q68DX3; [1] | GRID2IP_2, A4D2P6; [1] | GRIP1_4, Q9Y3R0; [1] | Inadl_6, Q8NI35; [1] | LAP2, Q96RT1; [1] | LIN7C, Q9NUP9; [1] | LNX1_2, Q8TBB1; [1] | MAGI1_2, Q96QZ7; [1] | MPDZ_10, O75970; [1] | MPDZ_5, O75970; [1] | MPP6, Q9NZW5; [1] | PICK1, Q9NRD5; [1] | SNTB1, Q13884; [1] | SNX27, Q96L92; [1] | TX1BP3, O14907; [1]
3.48: SCRIB_3, Q14160; [1]
3.9: TIAM2, Q8IVF5; [1]
3.53: GRASP, Q7Z6J2; [1]
3.56: LIN7B, Q9HAP6; [1]
3.75: PDZD2_2, O15018; [1]

NLNSSEGVPDLLV [SARS-CoV-E, P59637]
4.06: LNX1_2, Q8TBB1; [2]
below the threshold: AHNAK1, Q09666; [2] | DLG3_1, Q92796; [2] | DLG5_1, Q8TDM6; [2] | FRMPD2_1, Q68DX3; [2] | FRMPD2_2, Q68DX3; [2] | GRASP, Q7Z6J2; [2] | GRID2IP_2, A4D2P6; [2] | GRIP1_4, Q9Y3R0; [2] | Inadl_6, Q8NI35; [2] | LAP2, Q96RT1; [2] | LIN7B, Q9HAP6; [2] | LIN7C, Q9NUP9; [2] | MAGI1_2, Q96QZ7; [2] | MPDZ_10, O75970; [2] | MPDZ_5, O75970; [2] | MPP6, Q9NZW5; [2] | PDZD2_2, O15018; [2] | PICK1, Q9NRD5; [2] | SCRIB_3, Q14160; [2] | SNTB1, Q13884; [2] | SNX27, Q96L92; [2] | TIAM2, Q8IVF5; [2] | TX1BP3, O14907; [2]
3.88: ARHGAP21, Q5T5U3; [2]

QKNRKAQEDL [CES3, Q6UWW8]
below the threshold: AHNAK1, Q09666; [1] | ARHGAP21, Q5T5U3; [1] | DLG3_1, Q92796; [1] | DLG5_1, Q8TDM6; [1] | FRMPD2_1, Q68DX3; [1] | FRMPD2_2, Q68DX3; [1] | GRASP, Q7Z6J2; [1] | GRID2IP_2, A4D2P6; [1] | GRIP1_4, Q9Y3R0; [1] | Inadl_6, Q8NI35; [1] | LAP2, Q96RT1; [1] | LIN7C, Q9NUP9; [1] | LNX1_2, Q8TBB1; [1] | MAGI1_2, Q96QZ7; [1] | MPDZ_10, O75970; [1] | MPDZ_5, O75970; [1] | MPP6, Q9NZW5; [1] | PDZD2_2, O15018; [1] | SCRIB_3, Q14160; [1] | SNTB1, Q13884; [1] | SNX27, Q96L92; [1] | TX1BP3, O14907; [1]
4: PICK1, Q9NRD5; [1]
4.08: TIAM2, Q8IVF5; [1]
3.78: LIN7B, Q9HAP6; [1]
